Data as given in paper PMC6616073 (Frontiers in Pharmacology, 2003).
Positions of bridges follow the written chain, without caps; N, C: chain ends. No end group written: not given here.

B1: Lynx1 (1), synthetic loop II fragment of human Lynx1 with Cys added at both termini, disulfide-cyclised (peptide)
peptide: CTTRTYYTPTRMKVSKC
modifications: not fully specified (bridges); cysteine pairing not given here
notes: also called Lynx1 fragment (1); peptide 1
B2: Lynx1 linear (2), synthetic 15-membered loop II fragment of human Lynx1 (peptide)
peptide: TTRTYYTPTRMKVSK
notes: also called Lynx1 linear fragment (2); peptide 2
B3: Lynx1 short linear (4), shorter loop II fragment of human Lynx1 with free terminal Cys (peptide)
peptide: CTRTYYTPTRMC
notes: also called Lynx1 linear short (4); peptide 4
B4: Lynx1 short (3), shorter loop II fragment of human Lynx1 with terminal Cys, disulfide-cyclised (peptide)
peptide: CTRTYYTPTRMC
modifications: not fully specified (bridges); cysteine pairing not given here
notes: also called peptide 3; cyclic shorter form of Lynx1 fragment

What was measured:
Test in all cases: radioligand binding
[1] = target: T1, ligand-binding domain of the human nAChR α9 subunit (human, UniProt Q9UGM1 23-238); conditions: both partners purified
T1 construct: also called α9 LBD; human α9 LBD
T1 sequence (Q9UGM1 23-238): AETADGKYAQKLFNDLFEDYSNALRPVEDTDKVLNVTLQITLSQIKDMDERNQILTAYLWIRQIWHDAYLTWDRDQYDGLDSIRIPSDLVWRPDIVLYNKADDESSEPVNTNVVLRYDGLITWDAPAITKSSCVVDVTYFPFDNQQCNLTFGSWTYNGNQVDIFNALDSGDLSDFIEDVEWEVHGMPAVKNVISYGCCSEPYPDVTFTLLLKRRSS

[2] = target: T2, human α7 nicotinic acetylcholine receptor stably expressed in the rat pituitary tumor-derived cell line GH4C1 (human, UniProt P36544 23-502); conditions: one partner purified
T2 construct: also called α7 nAChR; human α7 nAChR
T2 sequence (P36544 23-502): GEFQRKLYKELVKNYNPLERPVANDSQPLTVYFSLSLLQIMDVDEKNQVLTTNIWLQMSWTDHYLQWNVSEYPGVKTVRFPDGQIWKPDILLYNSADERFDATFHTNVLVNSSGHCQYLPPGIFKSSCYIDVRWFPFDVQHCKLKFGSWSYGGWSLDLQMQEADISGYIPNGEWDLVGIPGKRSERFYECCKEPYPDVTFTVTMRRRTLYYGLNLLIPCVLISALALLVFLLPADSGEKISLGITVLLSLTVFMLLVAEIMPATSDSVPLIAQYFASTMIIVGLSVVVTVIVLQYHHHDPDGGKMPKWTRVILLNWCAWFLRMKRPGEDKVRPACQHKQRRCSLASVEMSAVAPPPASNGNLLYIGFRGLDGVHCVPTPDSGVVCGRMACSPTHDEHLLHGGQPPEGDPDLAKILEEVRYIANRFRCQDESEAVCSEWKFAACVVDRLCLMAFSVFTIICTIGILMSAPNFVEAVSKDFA

[3] = target: T3, membrane-bound Torpedo californica nicotinic acetylcholine receptor (Torpedo californica); conditions: one partner purified
T3 construct: also called T. californica nAChR; Torpedo nAChR
T3 sequence (P02710 25-461 limits assumed, chain 1 of 4): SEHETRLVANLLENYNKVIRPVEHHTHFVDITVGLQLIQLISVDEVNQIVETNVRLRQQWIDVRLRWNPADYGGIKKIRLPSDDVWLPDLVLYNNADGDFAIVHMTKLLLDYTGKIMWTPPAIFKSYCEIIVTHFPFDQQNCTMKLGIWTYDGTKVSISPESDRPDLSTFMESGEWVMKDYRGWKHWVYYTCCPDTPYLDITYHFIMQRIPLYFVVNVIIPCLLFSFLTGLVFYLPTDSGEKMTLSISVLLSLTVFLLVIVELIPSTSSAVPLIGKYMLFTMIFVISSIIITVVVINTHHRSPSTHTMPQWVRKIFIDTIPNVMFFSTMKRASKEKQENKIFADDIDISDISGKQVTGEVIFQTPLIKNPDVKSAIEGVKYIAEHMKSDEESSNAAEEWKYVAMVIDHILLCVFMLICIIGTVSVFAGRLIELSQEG
T3 sequence (P02712 25-493 limits assumed, chain 2 of 4, further chain): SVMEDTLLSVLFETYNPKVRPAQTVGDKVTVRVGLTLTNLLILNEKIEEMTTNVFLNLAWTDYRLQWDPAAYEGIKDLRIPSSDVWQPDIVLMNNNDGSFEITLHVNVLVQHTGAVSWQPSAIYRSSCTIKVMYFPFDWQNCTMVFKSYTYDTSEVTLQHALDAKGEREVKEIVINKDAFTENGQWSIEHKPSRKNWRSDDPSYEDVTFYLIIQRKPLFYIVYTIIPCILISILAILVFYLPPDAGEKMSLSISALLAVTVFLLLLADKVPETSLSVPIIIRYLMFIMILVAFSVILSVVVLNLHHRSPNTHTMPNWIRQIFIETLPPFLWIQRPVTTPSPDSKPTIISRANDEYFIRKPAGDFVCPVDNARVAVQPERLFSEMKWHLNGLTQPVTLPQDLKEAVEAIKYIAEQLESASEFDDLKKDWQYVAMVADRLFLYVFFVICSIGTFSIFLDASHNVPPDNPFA
T3 sequence (P02714 18-506 limits assumed, chain 3 of 4, further chain): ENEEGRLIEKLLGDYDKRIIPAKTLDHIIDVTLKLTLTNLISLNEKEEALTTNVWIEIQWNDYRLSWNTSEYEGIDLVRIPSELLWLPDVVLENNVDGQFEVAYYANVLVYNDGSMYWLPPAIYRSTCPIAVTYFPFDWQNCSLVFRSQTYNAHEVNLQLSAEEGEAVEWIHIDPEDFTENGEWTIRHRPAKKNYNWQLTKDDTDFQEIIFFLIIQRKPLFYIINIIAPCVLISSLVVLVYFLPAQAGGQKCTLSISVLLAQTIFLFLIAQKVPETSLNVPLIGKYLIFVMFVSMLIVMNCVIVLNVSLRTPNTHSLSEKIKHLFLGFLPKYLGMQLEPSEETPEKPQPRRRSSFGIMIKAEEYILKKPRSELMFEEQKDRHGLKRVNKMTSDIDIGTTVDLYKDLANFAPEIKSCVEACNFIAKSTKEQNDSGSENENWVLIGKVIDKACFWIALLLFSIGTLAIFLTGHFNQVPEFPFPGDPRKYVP
T3 sequence (P02718 22-522 limits assumed, chain 4 of 4, further chain): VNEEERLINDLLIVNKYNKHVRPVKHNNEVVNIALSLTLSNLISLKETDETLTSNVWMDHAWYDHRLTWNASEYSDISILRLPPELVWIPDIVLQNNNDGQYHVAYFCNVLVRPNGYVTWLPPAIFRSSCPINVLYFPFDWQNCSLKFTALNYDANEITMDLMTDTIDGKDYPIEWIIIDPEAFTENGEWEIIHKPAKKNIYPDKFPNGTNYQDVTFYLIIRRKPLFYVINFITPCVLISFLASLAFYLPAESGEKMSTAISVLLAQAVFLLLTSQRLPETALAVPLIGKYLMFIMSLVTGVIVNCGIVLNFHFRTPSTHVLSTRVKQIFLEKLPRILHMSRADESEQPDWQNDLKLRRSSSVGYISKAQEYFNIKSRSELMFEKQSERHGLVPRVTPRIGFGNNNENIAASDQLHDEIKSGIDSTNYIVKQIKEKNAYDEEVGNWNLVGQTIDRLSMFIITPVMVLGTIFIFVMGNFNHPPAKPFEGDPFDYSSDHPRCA

[4] = target: T2, human α7 nicotinic acetylcholine …; conditions: one partner purified; remark: listed apart in the source

| Binder | IC50 [1] | IC50 [2] | IC50 [3] | IC50 [4] |
| --- | --- | --- | --- | --- |
| CKMVRHQRSPYEVVRRMC (disulfide 1-18) | 41.7 µM | 13.1 µM | 7.4 µM | – |
| B1 | 41.7 µM | 173 µM | – | 148 µM |
| B2 | 40.7 µM | – | – | – |
| B3 | – | 69.2 µM | – | – |
| B4 | – | 58.9 µM | – | – |
